Measurements as given in US20150306241.

Target: T1, PEG2000-peptide-PTX
T1 chain: GPLGIAGQ

B1: Human active MMP2 protein (MW 66,000 Da) (protein)
chain: YNFFPRKPKWDKNQITYRIIGYTPDLDPETVDDAFARAFQVWSDVTPLRFSRIHDGEADIMINFGRWEHGDGYPFDGKDGLLAHAFAPGTGVGGDSHFDDDELWTLGEGQVVRVKYGNADGEYCKFPFLFNGKEYNSCTDTGRSDGFLWCSTTYNFEKDGKYGFCPHEALFTMGGNAEGQPCKFPFRFQGTSYDSCTTEGRTDGYRWCGTTEDYDRDKKYGFCPETAMSTVGGNSEGAPCVFPFTFLGNKYESCTSAGRSDGKMWCATTANYDDDRKWGFCPDQGYSLFLVAAHEFGHAMGLEHSQDPGALMAPIYTYTKNFRLSQDDIKGIQELYGASPDIDLGTGPTPTLGPVTPEICKQDIVFDGIAQIRGEIFFFKDRFIWRTVTPRDKPMGPLLVATFWPELPEKIDAVYEAPQEEKAVFFAGNEYWIYSASTLERGYPKPLTSLGLPPDVQRVDAAFNWSKNKKTYIFAGDKFWRYNEVKKKMDPGFPKLIADAWNAIPDNLDAVVDLQGGGHSYFFKGAYYLKLENQSLKSVKFGSIKSDWLGC
  enzymatic digestion followed by TLC (5 ng/µL human MMP2): the MMP2 completely cleaved the peptide linker resulting in two digestion fragments (IAGQ-PTX and PEG-GPLG)
